The values that follow are results of earlier work, collected in paper PMC4438997.

In this series the target is Ezrin FERM (Homo sapiens) (UniProt P15311).
Chain of UniProt P15311 (P15311 1-299): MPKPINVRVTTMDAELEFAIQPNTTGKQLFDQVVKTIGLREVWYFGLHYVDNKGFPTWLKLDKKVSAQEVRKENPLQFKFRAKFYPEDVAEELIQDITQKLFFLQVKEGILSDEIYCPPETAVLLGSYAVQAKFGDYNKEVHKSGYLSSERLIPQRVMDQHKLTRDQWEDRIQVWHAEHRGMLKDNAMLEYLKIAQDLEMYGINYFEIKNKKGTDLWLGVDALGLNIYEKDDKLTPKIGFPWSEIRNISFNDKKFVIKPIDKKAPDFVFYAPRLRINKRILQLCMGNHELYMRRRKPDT

As to “NHERF1 C-terminal domain (from UniProt O14745)”, the Kd is 19 nM.

A word on the Kd: it is the equilibrium constant for the complex coming apart.
